# Measured values reported in PMC12416549 (2024).
# Residue numbers refer to the chain shown, from its start. Names and notes keep the numbering of the source.
# T1: TNFR1 (Homo sapiens, UniProt P19438)
# T1 chain: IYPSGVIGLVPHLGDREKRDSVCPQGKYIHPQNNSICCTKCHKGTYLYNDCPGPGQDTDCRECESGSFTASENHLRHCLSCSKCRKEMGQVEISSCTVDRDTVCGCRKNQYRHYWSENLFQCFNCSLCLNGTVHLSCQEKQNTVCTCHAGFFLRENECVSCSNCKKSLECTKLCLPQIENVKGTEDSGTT
# B1: K85D (designed binder)
# chain: SMEEEVEKAAKEYEKKKKEAIEKHLEKLKAKDKEAAERFLKELEEAAKEYAKDEAKTMSEEEAKRRAKKYKEKVLLSELSEEEQDEIKEAEEKLVRTILKYVEEAAK
# B2: K8L (designed binder)
# chain: B1 chain with K8L, D85K
# B3: A9V (designed binder)
# chain: B1 chain with A9V, D85K
# B4: S1F (designed binder)
# chain: B1 chain with S1F, D85K
# B5: Y13A (designed binder)
# chain: B1 chain with Y13A, D85K
# B6: E82V (designed binder)
# chain: B1 chain with E82V, D85K
# B7: K27L (designed binder)
# chain: B1 chain with K27L, D85K
# B8: K33T (designed binder)
# chain: B1 chain with K33T, D85K
# B9: L75I (designed binder)
# chain: B1 chain with L75I, D85K
# B10: A105P (designed binder)
# chain: B1 chain with D85K, A105P
# B11: A9R (designed binder)
# chain: B1 chain with A9R, D85K
# B12: Y13Q (designed binder)
# chain: B1 chain with Y13Q, D85K
# B13: A10R (designed binder)
# chain: B1 chain with A10R, D85K
# B14: E34N (designed binder)
# chain: B1 chain with E34N, D85K
# B15: I87S (designed binder)
# chain: B1 chain with D85K, I87S
# B16: K17G (designed binder)
# chain: B1 chain with K17G, D85K
# B17: K107P (designed binder)
# chain: B1 chain with D85K, K107P
# B18: A67Q (designed binder)
# chain: B1 chain with A67Q, D85K
# B19: E92I (designed binder)
# chain: B1 chain with D85K, E92I
# B20: E62K (designed binder)
# chain: B1 chain with E62K, D85K
# B21: A30R (designed binder)
# chain: B1 chain with A30R, D85K
# B22: E81H (designed binder)
# chain: B1 chain with E81H, D85K
# B23: E72H (designed binder)
# chain: B1 chain with E72H, D85K
# B24: K8D (designed binder)
# chain: B1 chain with K8D, D85K
# B25: A10M (designed binder)
# chain: B1 chain with A10M, D85K
# B26: K73L (designed binder)
# chain: B1 chain with K73L, D85K
# B27: E42P (designed binder)
# chain: B1 chain with E42P, D85K
# B28: E61P (designed binder)
# chain: B1 chain with E61P, D85K
# B29: E60N (designed binder)
# chain: B1 chain with E60N, D85K
# B30: A47L (designed binder)
# chain: B1 chain with A47L, D85K
# B31: E103M (designed binder)
# chain: B1 chain with D85K, E103M
# B32: A20L (designed binder)
# chain: B1 chain with A20L, D85K
# B33: L76R (designed binder)
# chain: B1 chain with L76R, D85K
# B34: L25P (designed binder)
# chain: B1 chain with L25P, D85K
# B35: E78K (designed binder)
# chain: B1 chain with E78K, D85K
# B36: V95G (designed binder)
# chain: B1 chain with D85K, V95G
# B37: Y50Q (designed binder)
# chain: B1 chain with Y50Q, D85K
# B38: E82K (designed binder)
# chain: B1 chain with E82K, D85K
# B39: K73H (designed binder)
# chain: B1 chain with K73H, D85K
# B40: Y101M (designed binder)
# chain: B1 chain with D85K, Y101M
# B41: L94G (designed binder)
# chain: B1 chain with D85K, L94G
# B42: K100V (designed binder)
# chain: B1 chain with D85K, K100V
# B43: A55P (designed binder)
# chain: B1 chain with A55P, D85K
# B44: E89C (designed binder)
# chain: B1 chain with D85K, E89C
# B45: S80C (designed binder)
# chain: B1 chain with S80C, D85K
# B46: K17D (designed binder)
# chain: B1 chain with K17D, D85K
# B47: A36D (designed binder)
# chain: B1 chain with A36D, D85K
# B48: R38S (designed binder)
# chain: B1 chain with R38S, D85K
# B49: E3Y (designed binder)
# chain: B1 chain with E3Y, D85K
# B50: K107H (designed binder)
# chain: B1 chain with D85K, K107H
# B51: E14H (designed binder)
# chain: B1 chain with E14H, D85K
# B52: E54Y (designed binder)
# chain: B1 chain with E54Y, D85K
# B53: A35P (designed binder)
# chain: B1 chain with A35P, D85K
# B54: D53I (designed binder)
# chain: B1 chain with D53I, D85K
# B55: K8E (designed binder)
# chain: B1 chain with K8E, D85K
# Molecular target: T1, TNFR1
# Experiment: yeast display SC50
row,Binder,apparent Kd (screen) [nM]
1,B1,0.446
2,B2,0.718
3,B3,0.49
4,B4,4.39
5,B5,0.49
6,B6,0.539
7,B7,1.16
8,B8,0.49
9,B9,0.79
10,B10,0.653
11,B11,0.335
12,B12,1.69
13,B13,0.446
14,B14,0.49
15,B15,12.5
16,B16,2.73
17,B17,0.956
18,B18,11.4
19,B19,12.5
20,B20,0.49
21,B21,0.79
22,B22,0.593
23,B23,2.73
24,B24,1.4
25,B25,2.73
26,B26,7.07
27,B27,4.83
28,B28,0.869

row,Binder,apparent Kd (screen) [nM]
1,B29,3.63
2,B30,13.8
3,B31,0.593
4,B32,0.405
5,B33,7.07
6,B34,8.56
7,B35,4.83
8,B36,5.84
9,B37,4.83
10,B38,0.446
11,B39,12.5
12,B40,2.25
13,B41,2.25
14,B42,1.4
15,B43,12.5
16,B44,1.86
17,B45,1.05
18,B46,5.31
19,B47,0.446
20,B48,2.73
21,B49,5.84
22,B50,1.86
23,B51,2.73
24,B52,7.78
25,B53,1.4
26,B54,12.5
27,B55,1.54
